Paper PMC2901993 (Biochemical and biophysical research communications, 2010)

Molecular target: T1, translin-associated factor x (trax), mouse, N-terminal 6x-His tag (mouse (M. musculus), UniProt Q9QZE7 1-290)
T1 sequence (looked up): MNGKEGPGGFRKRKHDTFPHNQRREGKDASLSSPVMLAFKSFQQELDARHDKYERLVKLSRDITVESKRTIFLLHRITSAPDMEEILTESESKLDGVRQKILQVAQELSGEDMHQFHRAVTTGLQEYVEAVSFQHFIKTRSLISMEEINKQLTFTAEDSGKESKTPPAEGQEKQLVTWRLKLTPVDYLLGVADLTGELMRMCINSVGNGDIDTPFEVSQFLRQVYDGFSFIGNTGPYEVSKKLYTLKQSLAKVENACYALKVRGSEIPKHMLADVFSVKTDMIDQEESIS
Test: pull-down

B1: translin (mouse), co-expressed with trax from pETDuet-1 (natural protein, mouse (M. musculus), UniProt Q62348 1-228, looked up)
chain: MSVSEIFVELQGFLAAEQDIREEIRKVVQSLEQTAREILTLLQGVHQGTGFQDIPKRCLKAREHFSTVKTHLTSLKTKFPAEQYYRFHEHWRFVLQRLVFLAAFVVYLETETLVTREAVTEILGIEPDREKGFHLDVEDYLSGVLILASELSRLSVNSVTAGDYSRPLHISTFINELDSGFRLLNLKNDSLRKRYDGLKYDVKKVEEVVYDLSIRGFNKETAAACGEK
  stoichiometry N: ~1
